Experimental data published in IntAct's records for PubMed 25910212.

B1: Emerin (Homo sapiens), P50402 (parent)
chain: MDNYADLSDTELTTLLRRYNIPHGPVVGSTRRLYEKKIFEYETQRRRLSPPSSSAASSYSFSDLNSTRGDADMYDLPKKEDALLYQSKGYNDDYYEESYFTTRTYGEPESAGPSRAVRQSVTSFPDADAFHHQVHDDDLLSSSEEECKDRERPMYGRDSAYQSITHYRPVSASRSSLDLSYYPTSSSTSFMSSSSSSSSWLTRRAIRPENRAPGAGLGQDRQVPLWGQLLLFLVFVIVLFFIYHFMQAEEGNPF
partner: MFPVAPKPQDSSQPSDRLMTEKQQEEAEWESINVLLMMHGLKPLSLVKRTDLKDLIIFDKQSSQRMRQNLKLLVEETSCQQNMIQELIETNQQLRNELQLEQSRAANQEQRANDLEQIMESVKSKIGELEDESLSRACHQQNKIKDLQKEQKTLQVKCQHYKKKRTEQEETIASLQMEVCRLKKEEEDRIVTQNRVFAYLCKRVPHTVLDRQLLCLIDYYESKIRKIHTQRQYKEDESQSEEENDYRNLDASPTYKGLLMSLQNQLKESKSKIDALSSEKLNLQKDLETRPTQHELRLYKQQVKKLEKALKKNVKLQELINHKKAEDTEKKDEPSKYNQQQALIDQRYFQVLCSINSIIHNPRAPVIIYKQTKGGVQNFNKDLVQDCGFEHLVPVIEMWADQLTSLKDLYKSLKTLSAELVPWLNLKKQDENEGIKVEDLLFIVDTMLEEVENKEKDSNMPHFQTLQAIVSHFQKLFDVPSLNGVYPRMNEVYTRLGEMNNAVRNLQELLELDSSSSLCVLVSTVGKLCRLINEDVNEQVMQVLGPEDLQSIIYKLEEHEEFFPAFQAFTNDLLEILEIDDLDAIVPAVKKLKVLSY
B2: U4/U6 small nuclear ribonucleoprotein Prp31 (Homo sapiens), Q8WWY3 (parent)
chain: MSLADELLADLEEAAEEEEGGSYGEEEEEPAIEDVQEETQLDLSGDSVKTIAKLWDSKMFAEIMMKIEEYISKQAKASEVMGPVEAAPEYRVIVDANNLTVEIENELNIIHKFIRDKYSKRFPELESLVPNALDYIRTVKELGNSLDKCKNNENLQQILTNATIMVVSVTASTTQGQQLSEEELERLEEACDMALELNASKHRIYEYVESRMSFIAPNLSIIIGASTAAKIMGVAGGLTNLSKMPACNIMLLGAQRKTLSGFSSTSVLPHTGYIYHSDIVQSLPPDLRRKAARLVAAKCTLAARVDSFHESTEGKVGYELKDEIERKFDKWQEPPPVKQVKPLPAPLDGQRKKRGGRRYRKMKERLGLTEIRKQANRMSFGEIEEDAYQEDLGFSLGHLGKSGSGRVRQTQVNEATKARISKTLQRTLQKQSVVYGGKSTIRDRSSGTASSVAFTPLQGLEIVNPQAAEKKVAEANQKYFSSMAEFLKVKGEKSGLMST
partner: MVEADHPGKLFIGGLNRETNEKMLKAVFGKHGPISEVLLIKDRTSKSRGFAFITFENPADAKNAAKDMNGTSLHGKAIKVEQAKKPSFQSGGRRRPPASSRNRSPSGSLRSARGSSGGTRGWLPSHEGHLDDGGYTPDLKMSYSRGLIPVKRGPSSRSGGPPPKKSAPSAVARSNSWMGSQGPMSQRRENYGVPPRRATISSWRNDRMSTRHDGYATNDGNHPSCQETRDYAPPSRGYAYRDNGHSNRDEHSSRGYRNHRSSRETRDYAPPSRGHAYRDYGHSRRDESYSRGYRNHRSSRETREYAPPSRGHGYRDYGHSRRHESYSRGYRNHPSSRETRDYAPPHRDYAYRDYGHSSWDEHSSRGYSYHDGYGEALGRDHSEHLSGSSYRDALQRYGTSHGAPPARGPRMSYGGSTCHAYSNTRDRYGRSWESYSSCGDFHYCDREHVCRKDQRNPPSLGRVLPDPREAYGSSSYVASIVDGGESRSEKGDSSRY
B3: Elongation factor Ts, mitochondrial (Homo sapiens), P43897-2 (parent)
chain: MSLLRSLRVFLVARTGSYPAGSLLRQSPQPRHTFYAGPRLSASASSKELLMKLRRKTGYSFVNCKKALETCGGDLKQAEIWLHKEAQKEGWSKAAKLQGRKTKEGLIGLLQEGNTTVLVEVNCETDFVSRNLKFQLLVQQVALGTMMHCQTLKDQPSAYSKVQWLTPVNLALWEAEAGGSLEGFLNSSELSGLPAGPDREGSLKDQLALAIGKLGENMILKRAAWVKVPSGFYVGSYVHGAMQSPSLHKLVLGKYGALVICETSEQKTNLEDVGRRLGQHVVGMAPLSVGSLDDEPGGEAETKMLSQPYLLDPSITLGQYVQPQGVSVVDFVRFECGEGEEAAETE
B4: Elongation factor Ts, mitochondrial (Homo sapiens), P43897-2 (parent)
chain: B3 chain
partner: B1 partner
B5: ATP synthase mitochondrial F1 complex assembly factor 2 (Homo sapiens), Q8N5M1 (parent)
chain: MWRSCLRLRDGGRRLLNRPAGGPSASMSPGPTIPSPARAYAPPTERKRFYQNVSITQGEGGFEINLDHRKLKTPQAKLFTVPSEALAIAVATEWDSQQDTIKYYTMHLTTLCNTSLDNPTQRNKDQLIRAAVKFLDTDTICYRVEEPETLVELQRNEWDPIIEWAEKRYGVEISSSTSIMGPSIPAKTREVLVSHLASYNTWALQGIEFVAAQLKSMVLTLGLIDLRLTVEQAVLLSRLEEEYQIQKWGNIEWAHDYELQELRARTAAGTLFIHLCSESTTVKHKLLKE
partner: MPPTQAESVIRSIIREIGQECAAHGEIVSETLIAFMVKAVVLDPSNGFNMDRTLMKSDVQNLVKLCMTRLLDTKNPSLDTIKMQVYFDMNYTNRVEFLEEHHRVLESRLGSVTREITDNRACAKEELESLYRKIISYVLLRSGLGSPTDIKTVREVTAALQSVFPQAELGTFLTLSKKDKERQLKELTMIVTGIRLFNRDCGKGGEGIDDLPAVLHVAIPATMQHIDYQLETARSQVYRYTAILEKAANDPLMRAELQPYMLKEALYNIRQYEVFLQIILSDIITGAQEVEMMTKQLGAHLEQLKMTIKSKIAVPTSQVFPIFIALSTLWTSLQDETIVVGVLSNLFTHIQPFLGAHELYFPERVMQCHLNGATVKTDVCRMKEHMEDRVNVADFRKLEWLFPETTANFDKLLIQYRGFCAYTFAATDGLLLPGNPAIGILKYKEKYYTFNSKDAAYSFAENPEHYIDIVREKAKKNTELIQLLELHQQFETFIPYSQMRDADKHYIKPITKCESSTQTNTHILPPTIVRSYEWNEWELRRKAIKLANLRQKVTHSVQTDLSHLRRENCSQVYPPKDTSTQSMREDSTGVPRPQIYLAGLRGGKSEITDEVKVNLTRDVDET
B6: Neutrophil cytosol factor 2 (Homo sapiens), P19878 (parent)
chain: MSLVEAISLWNEGVLAADKKDWKGALDAFSAVQDPHSRICFNIGCMYTILKNMTEAEKAFTRSINRDKHLAVAYFQRGMLYYQTEKYDLAIKDLKEALIQLRGNQLIDYKILGLQFKLFACEVLYNIAFMYAKKEEWKKAEEQLALATSMKSEPRHSKIDKAMECVWKQKLYEPVVIPVGKLFRPNERQVAQLAKKDYLGKATVVASVVDQDSFSGFAPLQPQAAEPPPRPKTPEIFRALEGEAHRVLFGFVPETKEELQVMPGNIVFVLKKGNDNWATVMFNGQKGLVPCNYLEPVELRIHPQQQPQEESSPQSDIPAPPSSKAPGRPQLSPGQKQKEEPKEVKLSVPMPYTLKVHYKYTVVMKTQPGLPYSQVRDMVSKKLELRLEHTKLSYRPRDSNELVPLSEDSMKDAWGQVKNYCLTLWCENTVGDQGFPDEPKESEKADANNQTTEPQLKKGSQVEALFSYEATQPEDLEFQEGDIILVLSKVNEEWLEGECKGKVGIFPKVFVEDCATTDLESTRREV
B7: Neuromedin-B (Homo sapiens), P08949-2 (parent)
chain: MARRAGGARMFGSLLLFALLAAGVAPLSWDLPEPRSRASKIRVHSRGNLWATGHFMGKKSLEPSSPSPLGTAPHTSLRDQRLQLSHDLLGILLLKKALGVSLSRPAPQIQEAAGTNTAEMTPIMGQTQQRGLDCAHPGKVLNGTLLMAPSGCKS
B8: Inactive peptidyl-prolyl cis-trans isomerase FKBP6 (Homo sapiens), O75344 (parent)
chain: MGGSALNQGVLEGDDAPGQSLYERLSQRMLDISGDRGVLKDVIREGAGDLVAPDASVLVKYSGYLEHMDRPFDSNYFRKTPRLMKLGEDITLWGMELGLLSMRRGELARFLFKPNYAYGTLGCPPLIPPNTTVLFEIELLDFLDCAESDKFCALSAEQQDQFPLQKVLKVAATEREFGNYLFRQNRFYDAKVRYKRALLLLRRRSAPPEEQHLVEAAKLPVLLNLSFTYLKLDRPTIALCYGEQALIIDQKNAKALFRCGQACLLLTEYQKARDFLVRAQKEQPFNHDINNELKKLASCYRDYVDKEKEMWHRMFAPCGDGSTAGES
partner: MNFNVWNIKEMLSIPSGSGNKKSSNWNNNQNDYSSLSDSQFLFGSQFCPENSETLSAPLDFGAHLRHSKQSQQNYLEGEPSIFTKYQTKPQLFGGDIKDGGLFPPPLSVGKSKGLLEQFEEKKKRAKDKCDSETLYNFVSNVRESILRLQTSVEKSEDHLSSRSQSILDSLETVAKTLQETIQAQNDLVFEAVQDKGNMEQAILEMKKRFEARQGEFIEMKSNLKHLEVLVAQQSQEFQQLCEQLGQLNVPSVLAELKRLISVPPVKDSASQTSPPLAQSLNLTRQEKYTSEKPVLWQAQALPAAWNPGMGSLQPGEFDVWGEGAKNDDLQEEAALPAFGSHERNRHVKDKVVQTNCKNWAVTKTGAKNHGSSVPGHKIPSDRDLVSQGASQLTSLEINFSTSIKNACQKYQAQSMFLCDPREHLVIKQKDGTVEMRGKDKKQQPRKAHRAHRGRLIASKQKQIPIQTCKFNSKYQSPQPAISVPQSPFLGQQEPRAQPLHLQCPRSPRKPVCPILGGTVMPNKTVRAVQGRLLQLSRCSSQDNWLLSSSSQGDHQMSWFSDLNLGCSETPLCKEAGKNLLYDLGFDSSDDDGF
B9: EF-hand domain-containing protein 1 (Homo sapiens), Q5JVL4 (parent)
chain: MVSNPVHGLPFLPGTSFKDSTKTAFHRSQTLSYRNGYAIVRRPTVGIGGDRLQFNQLSQAELDELASKAPVLTYGQPKQAPPADFIPAHVAFDKKVLKFDAYFQEDVPMSTEEQYRIRQVNIYYYLEDDSMSVIEPVVENSGILQGKLIKRQRLAKNDRGDHYHWKDLNRGINITIYGKTFRVVDCDQFTQVFLESQGIELNPPEKMALDPYTELRKQPLRKYVTPSDFDQLKQFLTFDKQVLRFYAIWDDTDSMYGECRTYIIHYYLMDDTVEIREVHERNDGRDPFPLLMNRQRVPKVLVENAKNFPQCVLEISDQEVLEWYTAKDFIVGKSLTILGRTFFIYDCDPFTRRYYKEKFGITDLPRIDVSKREPPPVKQELPPYNGFGLVEDSAQNCFALIPKAPKKDVIKMLVNDNKVLRYLAVLESPIPEDKDRRFVFSYFLATDMISIFEPPVRNSGIIGGKYLGRTKVVKPYSTVDNPVYYGPSDFFIGAVIEVFGHRFIILDTDEYVLKYMESNAAQYSPEALASIQNHVRKREAPAPEAESKQTEKDPGVQELEALIDTIQKQLKDHSCKDNIREAFQIYDKEASGYVDRDMFFKICESLNVPVDDSLVKELIRMCSHGEGKINYYNFVRAFSN
partner: B8 partner

Variants of: B1
Details: with cep70_human CEP70, Q8NHQ1

Row | Variant | effect of a mutation on the interaction
1 | P183T | with no effect

Variants of: B2
Details: with rby1f_human RBMY1F

Row | Variant | effect of a mutation on the interaction
2 | L107V | with no effect

Variants of: B3
Details: with pp12c_human PPP1R12C

Row | Variant | effect of a mutation on the interaction
3 | R333W | disrupting interaction strength

Variants of: B4
Details: with cep70_human CEP70, Q8NHQ1

Row | Variant | effect of a mutation on the interaction
4 | R333W | disrupting interaction strength

Variants of: B5
Details: with cf206_human CFAP206, Q8IYR0

Row | Variant | effect of a mutation on the interaction
5 | W94R | disrupting interaction strength

Variants of: B6
Details: with goga2_human GOLGA2, Q08379
Chain of goga2_human GOLGA2, Q08379 (Q08379 whole entry): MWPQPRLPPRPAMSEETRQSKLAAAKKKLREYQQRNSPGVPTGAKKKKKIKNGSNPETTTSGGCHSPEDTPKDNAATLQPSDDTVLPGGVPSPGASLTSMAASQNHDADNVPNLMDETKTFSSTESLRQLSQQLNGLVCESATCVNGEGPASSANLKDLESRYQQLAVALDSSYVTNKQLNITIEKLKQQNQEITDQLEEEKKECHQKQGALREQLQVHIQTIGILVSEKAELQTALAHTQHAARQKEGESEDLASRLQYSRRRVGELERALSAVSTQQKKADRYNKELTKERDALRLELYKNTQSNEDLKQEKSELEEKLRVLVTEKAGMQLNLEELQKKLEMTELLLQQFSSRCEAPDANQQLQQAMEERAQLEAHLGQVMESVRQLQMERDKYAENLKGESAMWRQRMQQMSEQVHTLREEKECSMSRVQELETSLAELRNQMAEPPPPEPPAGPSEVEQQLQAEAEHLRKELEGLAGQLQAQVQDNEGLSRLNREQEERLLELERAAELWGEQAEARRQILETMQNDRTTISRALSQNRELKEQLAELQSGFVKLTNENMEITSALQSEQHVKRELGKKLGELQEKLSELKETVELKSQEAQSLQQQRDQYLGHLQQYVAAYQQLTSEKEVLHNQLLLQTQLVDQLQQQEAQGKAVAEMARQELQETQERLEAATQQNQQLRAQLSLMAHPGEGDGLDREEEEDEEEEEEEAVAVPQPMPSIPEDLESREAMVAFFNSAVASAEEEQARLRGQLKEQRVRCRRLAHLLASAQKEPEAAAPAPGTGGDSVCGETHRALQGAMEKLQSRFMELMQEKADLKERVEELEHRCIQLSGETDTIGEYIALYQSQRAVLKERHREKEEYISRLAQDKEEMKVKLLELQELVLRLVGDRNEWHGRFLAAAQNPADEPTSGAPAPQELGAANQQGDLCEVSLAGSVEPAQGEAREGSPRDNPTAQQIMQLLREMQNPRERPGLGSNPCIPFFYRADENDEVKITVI

Row | Variant | effect of a mutation on the interaction
6 | N419I | with no effect
7 | G78E | disrupting interaction strength
8 | R395W | with no effect

Variants of: B6
Details: with kifa3_human KIFAP3, Q92845
Chain of kifa3_human KIFAP3, Q92845 (Q92845 whole entry): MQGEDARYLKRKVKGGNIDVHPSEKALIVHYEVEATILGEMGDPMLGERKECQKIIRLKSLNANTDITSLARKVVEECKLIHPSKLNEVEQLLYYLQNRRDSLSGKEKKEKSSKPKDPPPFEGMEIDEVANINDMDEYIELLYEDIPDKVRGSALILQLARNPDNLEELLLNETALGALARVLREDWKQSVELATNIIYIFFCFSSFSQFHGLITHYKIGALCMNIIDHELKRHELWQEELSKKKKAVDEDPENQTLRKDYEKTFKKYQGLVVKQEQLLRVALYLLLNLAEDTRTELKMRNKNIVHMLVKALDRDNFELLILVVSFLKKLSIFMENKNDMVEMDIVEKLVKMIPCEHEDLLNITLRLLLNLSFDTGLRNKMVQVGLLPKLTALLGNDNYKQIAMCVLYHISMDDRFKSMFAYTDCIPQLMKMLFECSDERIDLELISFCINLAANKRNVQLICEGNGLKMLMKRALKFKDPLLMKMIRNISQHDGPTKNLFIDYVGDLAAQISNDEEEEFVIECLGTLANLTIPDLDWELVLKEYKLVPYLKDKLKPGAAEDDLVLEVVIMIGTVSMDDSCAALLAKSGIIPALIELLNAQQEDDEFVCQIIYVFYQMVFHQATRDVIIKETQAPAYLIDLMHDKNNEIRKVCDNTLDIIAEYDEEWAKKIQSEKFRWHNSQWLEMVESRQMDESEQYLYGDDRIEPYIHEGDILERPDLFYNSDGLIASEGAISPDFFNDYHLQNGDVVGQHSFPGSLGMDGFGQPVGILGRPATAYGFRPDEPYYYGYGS

Row | Variant | effect of a mutation on the interaction
9 | N419I | with no effect
10 | G78E | disrupting interaction strength
11 | R395W | with no effect

Variants of: B7
Details: with birc2_human BIRC2, Q13490
Chain of birc2_human BIRC2, Q13490 (Q13490 whole entry): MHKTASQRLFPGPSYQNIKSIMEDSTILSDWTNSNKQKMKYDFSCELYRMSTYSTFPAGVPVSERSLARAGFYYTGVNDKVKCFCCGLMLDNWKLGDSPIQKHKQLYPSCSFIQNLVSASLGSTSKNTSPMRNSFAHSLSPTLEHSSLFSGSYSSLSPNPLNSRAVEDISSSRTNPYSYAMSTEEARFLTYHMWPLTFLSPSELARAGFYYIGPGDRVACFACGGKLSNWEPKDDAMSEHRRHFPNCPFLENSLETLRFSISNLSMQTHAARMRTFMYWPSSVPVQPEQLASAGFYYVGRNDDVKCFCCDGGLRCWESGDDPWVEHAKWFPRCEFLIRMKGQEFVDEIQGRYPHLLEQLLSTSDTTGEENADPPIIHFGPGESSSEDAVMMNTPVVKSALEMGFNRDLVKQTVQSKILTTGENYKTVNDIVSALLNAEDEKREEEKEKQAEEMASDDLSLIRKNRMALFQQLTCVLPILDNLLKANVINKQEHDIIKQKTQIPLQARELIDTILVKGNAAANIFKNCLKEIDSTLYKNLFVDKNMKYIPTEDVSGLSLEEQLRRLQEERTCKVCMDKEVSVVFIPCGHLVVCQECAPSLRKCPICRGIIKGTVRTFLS

Row | Variant | effect of a mutation on the interaction
12 | M120I | with no effect

Variants of: B8
Details: with iho1_human IHO1, Q8IYA8

Row | Variant | effect of a mutation on the interaction
13 | R202H | with no effect
14 | F72L | with no effect

Variants of: B9
Details: with iho1_human IHO1, Q8IYA8

Row | Variant | effect of a mutation on the interaction
15 | T508R | disrupting interaction strength
16 | R221H | disrupting interaction strength
17 | P77T | disrupting interaction strength
18 | M448T | with no effect
19 | A394S | disrupting interaction strength
20 | R159W | with no effect
